Assay results published in patent US20060211043A1.

Target: USP-AE, segment from A region to E region of Ultraspiracle (USP) of Spodoptera litura, N-terminal His tag, expressed in Escherichia coli (Spodoptera litura)
Test: cell-based or functional assay

EcR-DF, segment from D region to F region of the molting hormone receptor (EcR) of Spodoptera litura, N-terminal His tag, expressed in Escherichia coli and refolded by gel filtration
molar ratio of EcR-DF to USP-AE at which ponasterone A binding saturates (USP-AE titrated onto a fixed amount of EcR-DF) (molar ratio EcR-DF:USP-AE (1:1)): 1
